Reference: patent US20140274782A1, “AFFINITY REAGENTS AND METHODS FOR DETECTION, PURIFICATION, AND PROTEOMIC ANALYSIS OF METHYLATED PROTEINS” (The Board of Trustees of the Leland Stanford Junior …, priority 2013, published 2014)

T1: G9a and GLP (Homo sapiens, UniProt Q96KQ7+Q9H9B1)
T1 sequence (Q96KQ7 2-1210 limits assumed): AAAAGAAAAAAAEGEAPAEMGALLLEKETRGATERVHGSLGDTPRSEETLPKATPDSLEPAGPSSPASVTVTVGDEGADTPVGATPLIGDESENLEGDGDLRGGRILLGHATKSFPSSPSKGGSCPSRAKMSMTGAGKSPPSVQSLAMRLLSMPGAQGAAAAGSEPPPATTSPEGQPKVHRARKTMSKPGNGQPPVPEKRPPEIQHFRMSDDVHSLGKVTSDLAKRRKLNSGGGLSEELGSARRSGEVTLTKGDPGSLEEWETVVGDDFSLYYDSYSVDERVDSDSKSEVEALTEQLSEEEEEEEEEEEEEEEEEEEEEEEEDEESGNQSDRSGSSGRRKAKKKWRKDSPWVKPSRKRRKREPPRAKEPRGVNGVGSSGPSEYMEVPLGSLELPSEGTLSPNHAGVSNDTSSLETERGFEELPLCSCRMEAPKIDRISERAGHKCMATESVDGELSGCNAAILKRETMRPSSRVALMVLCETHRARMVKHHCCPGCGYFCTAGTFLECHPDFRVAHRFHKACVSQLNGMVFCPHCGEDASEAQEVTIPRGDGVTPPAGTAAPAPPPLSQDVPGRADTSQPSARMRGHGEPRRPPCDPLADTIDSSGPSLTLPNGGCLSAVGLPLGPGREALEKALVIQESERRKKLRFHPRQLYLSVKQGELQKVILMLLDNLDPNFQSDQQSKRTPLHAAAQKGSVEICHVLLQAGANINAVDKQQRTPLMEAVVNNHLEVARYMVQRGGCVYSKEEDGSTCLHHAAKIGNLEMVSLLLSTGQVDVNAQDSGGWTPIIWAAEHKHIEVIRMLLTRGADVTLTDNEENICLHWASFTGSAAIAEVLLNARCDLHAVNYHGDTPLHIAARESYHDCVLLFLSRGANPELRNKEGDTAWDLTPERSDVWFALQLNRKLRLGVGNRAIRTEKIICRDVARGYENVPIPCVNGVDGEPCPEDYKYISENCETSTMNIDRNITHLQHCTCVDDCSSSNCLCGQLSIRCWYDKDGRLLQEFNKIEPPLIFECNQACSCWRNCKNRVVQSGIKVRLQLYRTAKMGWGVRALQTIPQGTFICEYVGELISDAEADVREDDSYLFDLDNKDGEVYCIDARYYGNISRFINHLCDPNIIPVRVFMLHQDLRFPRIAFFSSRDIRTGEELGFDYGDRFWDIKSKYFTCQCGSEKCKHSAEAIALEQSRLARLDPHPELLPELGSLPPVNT
T1 sequence (Q9H9B1 2-1298 limits assumed): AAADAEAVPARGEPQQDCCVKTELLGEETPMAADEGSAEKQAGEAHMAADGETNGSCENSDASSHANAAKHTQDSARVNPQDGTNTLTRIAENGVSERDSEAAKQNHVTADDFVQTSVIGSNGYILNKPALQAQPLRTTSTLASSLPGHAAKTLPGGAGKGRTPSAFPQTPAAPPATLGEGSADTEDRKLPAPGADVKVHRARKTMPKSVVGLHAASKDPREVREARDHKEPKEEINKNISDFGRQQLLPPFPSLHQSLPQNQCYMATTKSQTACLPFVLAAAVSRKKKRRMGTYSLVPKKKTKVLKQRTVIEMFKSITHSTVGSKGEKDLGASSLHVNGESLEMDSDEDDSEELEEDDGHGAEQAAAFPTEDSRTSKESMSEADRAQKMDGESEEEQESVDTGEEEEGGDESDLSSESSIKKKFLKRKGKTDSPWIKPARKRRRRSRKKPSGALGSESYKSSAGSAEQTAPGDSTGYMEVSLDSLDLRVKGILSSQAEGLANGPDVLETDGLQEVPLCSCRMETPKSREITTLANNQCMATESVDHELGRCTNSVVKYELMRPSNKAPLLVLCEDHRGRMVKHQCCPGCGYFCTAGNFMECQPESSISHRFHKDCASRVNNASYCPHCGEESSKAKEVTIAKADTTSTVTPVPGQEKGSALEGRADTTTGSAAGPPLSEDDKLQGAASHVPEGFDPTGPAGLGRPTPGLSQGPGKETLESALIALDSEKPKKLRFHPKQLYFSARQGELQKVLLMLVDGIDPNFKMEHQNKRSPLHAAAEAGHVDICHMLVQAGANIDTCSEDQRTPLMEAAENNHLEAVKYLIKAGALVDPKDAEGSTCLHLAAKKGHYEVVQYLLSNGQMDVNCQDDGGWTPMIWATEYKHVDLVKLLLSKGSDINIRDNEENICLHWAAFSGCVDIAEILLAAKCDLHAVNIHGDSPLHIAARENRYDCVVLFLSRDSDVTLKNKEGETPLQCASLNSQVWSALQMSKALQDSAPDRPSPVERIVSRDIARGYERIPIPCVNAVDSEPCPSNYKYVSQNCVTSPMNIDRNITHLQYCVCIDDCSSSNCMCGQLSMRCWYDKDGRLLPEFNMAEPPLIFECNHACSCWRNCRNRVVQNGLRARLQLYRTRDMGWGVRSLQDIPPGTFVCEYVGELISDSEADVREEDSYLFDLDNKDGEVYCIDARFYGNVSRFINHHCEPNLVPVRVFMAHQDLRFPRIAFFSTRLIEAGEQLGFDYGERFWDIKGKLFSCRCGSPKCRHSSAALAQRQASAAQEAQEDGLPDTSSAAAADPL

B1: NHP2L1: protein with methylated lysine identified in 3xMBT pull-down (protein, UniProt P55769 1-128, looked up)
NHP2-like protein 1: MTEADVNPKAYPLADAHLTKKLLDLVQQSCNYKQLRKGANEATKTLNRGISEFIVMAADAEPLEIILHLPLLCEDKNVPYVFVRSKQALGRACGVSRPVIACSVTIKEGSQLKQQIQSIQQSIERLLV
B2: SCML2: protein with methylated lysine identified in 3xMBT pull-down (protein, UniProt Q9UQR0 1-700, looked up)
Sex comb on midleg-like …: MGQTVNEDSMDVKKENQEKTPQSSTSSVQRDDFHWEEYLKETGSISAPSECFRQSQIPPVNDFKVGMKLEARDPRNATSVCIATVIGITGARLRLRLDGSDNRNDFWRLVDSPDIQPVGTCEKEGDLLQPPLGYQMNTSSWPMFLLKTLNGSEMASATLFKKEPPKPPLNNFKVGMKLEAIDKKNPYLICPATIGDVKGDEVHITFDGWSGAFDYWCKYDSRDIFPAGWCRLTGDVLQPPGTSVPIVKNIAKTESSPSEASQHSMQSPQKTTLILPTQQVRRSSRIKPPGPTAVPKRSSSVKNITPRKKGPNSGKKEKPLPVICSTSAASLKSLTRDRGMLYKDVASGPCKIVMSTVCVYVNKHGNFGPHLDPKRIQQLPDHFGPGPVNVVLRRIVQACVDCALETKTVFGYLKPDNRGGEVITASFDGETHSIQLPPVNSASFALRFLENFCHSLQCDNLLSSQPFSSSRGHTHSSAEHDKNQSAKEDVTERQSTKRSPQQTVPYVVPLSPKLPKTKEYASEGEPLFAGGSAIPKEENLSEDSKSSSLNSGNYLNPACRNPMYIHTSVSQDFSRSVPGTTSSPLVGDISPKSSPHEVKFQMQRKSEAPSYIAVPDPSVLKQGFSKDPSTWSVDEVIQFMKHTDPQISGPLADLFRQHEIDGKALFLLKSDVMMKYMGLKLGPALKLCYYIEKLKEGKYS
B3: MCM4: protein with methylated lysine identified in 3xMBT pull-down (protein, UniProt P33991 2-863, looked up)
DNA replication licensing …: SSPASTPSRRGSRRGRATPAQTPRSEDARSSPSQRRRGEDSTSTGELQPMPTSPGVDLQSPAAQDVLFSSPPQMHSSAIPLDFDVSSPLTYGTPSSRVEGTPRSGVRGTPVRQRPDLGSAQKGLQVDLQSDGAAAEDIVASEQSLGQKLVIWGTDVNVAACKENFQRFLQRFIDPLAKEEENVGIDITEPLYMQRLGEINVIGEPFLNVNCEHIKSFDKNLYRQLISYPQEVIPTFDMAVNEIFFDRYPDSILEHQIQVRPFNALKTKNMRNLNPEDIDQLITISGMVIRTSQLIPEMQEAFFQCQVCAHTTRVEMDRGRIAEPSVCGRCHTTHSMALIHNRSLFSDKQMIKLQESPEDMPAGQTPHTVILFAHNDLVDKVQPGDRVNVTGIYRAVPIRVNPRVSNVKSVYKTHIDVIHYRKTDAKRLHGLDEEAEQKLFSEKRVELLKELSRKPDIYERLASALAPSIYEHEDIKKGILLQLFGGTRKDFSHTGRGKFRAEINILLCGDPGTSKSQLLQYVYNLVPRGQYTSGKGSSAVGLTAYVMKDPETRQLVLQTGALVLSDNGICCIDEFDKMNESTRSVLHEVMEQQTLSIAKAGIICQLNARTSVLAAANPIESQWNPKKTTIENIQLPHTLLSRFDLIFLLLDPQDEAYDRRLAHHLVALYYQSEEQAEEELLDMAVLKDYIAYAHSTIMPRLSEEASQALIEAYVDMRKIGSSRGMVSAYPRQLESLIRLAEAHAKVRLSNKVEAIDVEEAKRLHREALKQSATDPRTGIVDISILTTGMSATSRKRKEELAEALKKLILSKGKTPALKYQQLFEDIRGQSDIAITKDMFEEALRALADDDFLTVTGKTVRLL
modifications: methylated lysine
notes: protein with methylated lysine identified in 3xMBT pull-down

Biological target: T1, G9a and GLP
Assay: Triple SILAC pull-down after UNC0638 treatment of 293T cells, DMSO/UNC0638 ratio of protein captured by 3×MBT;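 further: mass spectrometry (Q-Exactive) SILAC quantitation, DMSO/UNC0638 ratio computed after subtracting 3×MBTD355N mutant pull-down background, only proteins with at least twofold 3×MBT over mutant signal considered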
Assay type: cell-based
Set-up: cells were treated for 24 hours with UNC0638 at 2.5 μM or DMSO vehicle control; endogenous in cells; host or cells: HEK 293T
Details: for Relative to UNC0638 UNC Heavy: UNC0638 in heavy SILAC media; for Relative to UNC0638 UNC Light: UNC0638 in light SILAC media; for Relative to UNC0638 Average: average of UNC Light and UNC Heavy experiments
[1] = SILAC ratio DMSO/UNC0638 of protein pulled down with 3xMBT
[2] = SILAC ratio DMSO relative to UNC0638, pull-down with 3xMBT, all values in log base 2

Molecule	Relative to UNC0638 UNC Heavy [1]	Relative to UNC0638 UNC Light [1]	Relative to UNC0638 Average	Relative to UNC0638 UNC Heavy [2]	Relative to UNC0638 UNC Light [2]	Relative to UNC0638 Average (all values in log base 2)
B1	−0.86 log base 2	1.33 log base 2	0.24 log base 2	–	–	–
B2	–	–	–	0.59 log base 2	−0.85 log base 2	−0.13 log base 2
B3	0.24 log base 2	0.15 log base 2	0.20 log base 2	–	–	–
